Experimental data: patent US6190659A, “Bacterial plasmin binding protein and methods of use thereof” (priority 1996, dated 2001)

Tested on: O=C(O)C(CO)OP(=O)(O)O
Experiment: Enolase single enzyme assay: conversion of 2-phosphoglycerate to phosphoenolpyruvate, absorbance at 240 nm
Type: biochemical
Details: 7.7 mM KCl
Description: FIG. 7: Michaelis-Menten plot depicting the change in absorbance at 240 nm/minute as a function of the concentration of 2-phosphoglycerate (mM) as catalyzed by the plasmin binding protein. The change in absorbance is due to the conversion of 2-phosphoglycerate to phosphoenolpyruvate. Conditions as described in Example 1.
FIG. 8: Double-reciprocal plot depicting the change in the reciprocal of the absorbance at 240 nm/minute as a function of the reciprocal of the concentration of 2-phosphoglycerate (mM) as catalyzed by the plasmin binding protein. The change in absorbance is due to the conversion of 2-phosphoglycerate to phosphoenolpyruvate. Conditions as described in Example 1.
The molecular weight of the plasmin binding protein for one particular embodiment of the present invention has been determined to be approximately 45 kDa by SDS-PAGE.
(b) For the kinetic studies, the single enzyme assay was used, involving only the conversion of 2-phosphoglycerate to phosphoenolpyruvate by enolase. This simpler reaction avoids possible interactions of the effectors with the other enzymes. The reaction was performed at 30° C. in 100 mM HEPES buffer, pH 7.0, containing 10 mM MgSO4, 3.2 mM EDTA and 7.7 mM KCl and varying concentrations of 2-phosphoglycerate (0.19-7.5 mM). The change in absorbance/min was monitored at 240 nm. […] Michaelis-Menten and Lineweaver-Burke plots were drawn from the data obtained using 5 μg of SEN and varying concentrations of 2-phosphoglycerate (FIGS. 7 and 8). […] A concentration-dependent increase in the enolase activity was also found for the intact, washed streptococci (FIG. 5).

[1] = other: 0.1 M Hepes pH 7.0, 10 mM MgSO4, 3.2 mM EDTA, 30° C.
[2] = other: 30° C., 100 mM HEPES pH 7.0, 10 mM MgSO4, 3.2 mM EDTA, 5 μg SEN, 2-phosphoglycerate 0.19-7.5 mM, Michaelis-Menten and Lineweaver-Burke plots

In the case of “streptococcal surface enolase (SEN), 45 kDa plasmin binding protein purified from group A streptococci type M6 strain D471, N-terminal sequence SEQ ID NO: 1 (Streptococcus pyogenes MGAS10394)”, the Km [1] is reported as 1.5 mM, the Vmax [1] is reported as 270 μmol per minute-mg protein and the Km [2] is reported as 1.5 mM. The Vmax [2] was 270 μmol per minute-mg protein.
